Test results: the RNAGym collection of RNA variant scans (doi:10.7554/elife.90254)

B1: LINE1-full (parent)
chain: UACGUAGGUGGUUUUCCCCUGAUAGUGCUAAGGGGGCCUGGAAGUUUGGACUGGGCAGAGCUCAACACAGCGUGGCAAAGUGGCUGUGGCUAGACUGCCUCUCUGGAUUCCUCGUCACUCAGCAGGGCAUCUCUGAGAGAAAUGCC

Variants of: B1
Experiment: self-cleavage, relative activity (ratio to wild type); higher = more cleavage; in vitro, sequencing; the parent is a self-cleaving ribozyme

| Variant | self-cleavage |
| --- | --- |
| G49C A121G | 0.93 |
| G105C A140G | 1.83 |
| G40U A79G | 1.09 |
| G54A U132C | 0.53 |
| A43G U91C | 0.37 |
| U73A A79G | 1.2 |
| C131G A138G | 2.49 |
| U108C C146U | 0.63 |
| A24G A77G | 1.41 |
| A43G U81C | 1.32 |
| A22G U87C | 0.28 |
| A107G C116A | 1.71 |
| U23C U87A | 0.06 |
| G88U | 0.05 |
| C19A U91C | 0.46 |
| U109A U130C | 1.54 |
| U91G A138G | 0 |
| A121G G125A | 1.29 |
| A2U U15G | 0.51 |
| U47A C118A | 0.95 |
| U46C A136U | 1.44 |
| U47C A136C | 1.09 |
| A59G G106A | 0.06 |
| U102C U134A | 1.59 |

| Variant | self-cleavage |
| --- | --- |
| U52C U143A | 1.84 |
| U15C A64G | 0.36 |
| U39G A140G | 1.31 |
| A57U A78U | 0.03 |
| A59G U100A | 0.07 |
| A22U A43U | 1.43 |
| U13C A43U | 1.29 |
| A42U A141U | 0.81 |
| U5C U87A | 0.15 |
| G72U U73A | 1.33 |
| A50C C103U | 1.37 |
| A65U C146U | 0.16 |
| U14C U109C | 1.25 |
| C116U U134C | 1.11 |
| G4U A69G | 0.32 |
| C28U A57U | 0.11 |
| A42G U119A | 0.95 |
| C19U G48A | 0.72 |
| U5C U26C | 1.23 |
| G53A U108C | 1.97 |
| C16U A124U | 0.88 |
| A43G A117C | 1.85 |
| U100C A141U | 1.08 |
| U26A U96G | 0.03 |

| Variant | self-cleavage |
| --- | --- |
| A6U G126U | 1.16 |
| G34A U132A | 1.51 |
| U9G U130C | 1.79 |
| A107U G127A | 0.93 |
| G114A U115C | 1.58 |
| U9G C68U | 0.21 |
| U46A U130G | 1.39 |
| U85G U119A | 0.19 |
| U12C U39A | 1.32 |
| U87A A107G | 0.1 |
| U12A C123U | 1.38 |
| U73C G127A | 1.7 |
| C113U U130C | 1.77 |
| C120U A142G | 1.59 |
| U73C C90A | 0.06 |
| C68G A121C | 0.03 |
| U39C U46C | 1.56 |
| A79G G89C | 0.05 |
| U39C A107C | 2.09 |
| U47C U108C | 1.62 |
| A92U G105A | 0.77 |
| C123U G125C | 1.1 |
| U12G U23A | 0.85 |
| G35C U143G | 0.86 |

| Variant | self-cleavage |
| --- | --- |
| G35C U143A | 1.39 |
| A30G G55U | 0.79 |
| A136U C146U | 1.58 |
| U45C A79U | 1.92 |
| A24U U96C | 0.07 |
| A57U C99U | 0.04 |
| U108C U109C | 1.51 |
| A2C A107G | 1.15 |
| G125A U132C | 1.55 |
| A42C C110A | 1.68 |
| G25U U46C | 1.74 |
| U20A U39A | 0.84 |
| A24C G114A | 0.68 |
| U108C U134G | 2.43 |
| U47A A117U | 1.25 |
| U23A A59G | 0.24 |
| U26A U47C | 1 |
| U119A G125U | 1.07 |
| U85A A107U | 0.08 |
| A24C G49A | 0.82 |
| U12A A50C | 0.57 |
| A69G G82A | 0.68 |
| U15C U91C | 0.77 |
| U14C A78C | 1.74 |

| Variant | self-cleavage |
| --- | --- |
| U91C U96C | 0.13 |
| A57G U130C | 1.3 |
| A94U U112A | 0.31 |
| U23C | 1.3 |
| U9C U112C | 1.45 |
| A92U C128U | 0.47 |
| G74U | 1.4 |
| G74C | 1.6 |
| C66U C111U | 0.04 |
| U20A A43G | 1.12 |
| U109A A117G | 1.42 |
| A22G U132C | 1.11 |
| A31G G135A | 1.09 |
| G49A U134C | 0.75 |
| G75A A94U | 0.35 |
| U81C A136G | 1.12 |
| G58C A124U | 0.03 |
| U20G G135A | 0.98 |
| A30G A107G | 1.2 |
| U102C G126A | 1.65 |
| U14C C76U | 1.23 |
| C37U A79G | 1.1 |
| A43G U73C | 1.3 |
| G10A U81A | 2.3 |

| Variant | self-cleavage |
| --- | --- |
| U13C G40U | 1.87 |
| U47G A79U | 2.35 |
| A24U A121U | 0.55 |
| U12G U119C | 1.34 |
| U52C A140G | 1.1 |
| G21U A79G | 1.32 |
| U100C G135A | 1.74 |
| U132A A136G | 1.79 |
| A59U G126A | 0.59 |
| A50G A67U | 0.1 |
| A2G G137A | 0.61 |
| A30G A42G | 0.9 |
| U87C C145G | 0.32 |
| U132A U143A | 2 |
| A57U C84A | 0.21 |
| U73G A141G | 1.81 |
| U73C A107U | 2.22 |
| U132A A141G | 1.58 |
| U12C G49U | 1.35 |
| U29G C113U | 0.66 |
| U14G C18A | 1.09 |
| A65G A124G | 0.07 |
| U73C U109C | 0.31 |
| U12G C113U | 0.66 |

| Variant | self-cleavage |
| --- | --- |
| U14C U100C | 1.55 |
| A65G G89A | 0.04 |
| C19U U39A | 1.07 |
| G53U U62C | 0.08 |
| A94G U130C | 0.36 |
| G7U U115C | 0.79 |
| G80A A140U | 1.58 |
| G35A U100C | 1.36 |
| U62A A121G | 0.06 |
| C19G U62A | 0.03 |
| U5A U20A | 1.12 |
| A59G U62C | 0.1 |
| C68A U73C | 0.05 |
| U115G U119A | 1.36 |
| A77U A136G | 1.19 |
| A2U U47A | 0.85 |
| U5C U130A | 0.77 |
| A30C G41U | 1.52 |
| A24U U85C | 0.15 |
| U13A U108C | 1.02 |
| U9A G70C | 0.3 |
| U45G A92G | 0.09 |
| U132A A138G | 1.39 |
